Results published in US11787839B2, “Targeting α2δ-1-bound glutamate receptors for treating diseases and disorders” (Board of Regents, The University of Texas System, priority 2017, dated 2023).

What was measured:
[1] = target: T1, NMDARs of RVLM-projecting PVN neurons (Rattus norvegicus, UniProt P35439+Q00959+Q00960); assay: Recordings of RVLM-projecting PVN neurons in slices of WKY rats and SHRs; assay type: cell-based
T1 construct: from tissue; host or cells: rat hypothalamic slices containing the PVN (Sprague-Dawley, WKY, SHR) and synaptosomes made from them

[2] = target: presynaptic NMDARs of spinal lamina II neurons (Rattus norvegicus, UniProt P35439+Q00959+Q00960)
[3] = target: T2, presynaptic NMDARs of spinal dorsal horn neurons (Rattus norvegicus, UniProt P35439+Q00959+Q00960); assay: Spinal cord slice recordings, morphine-treated rats; assay type: cell-based; conditions: AP5 50 μM, gabapentin 100 μM, peptides 1 μM for 60 min
T2 construct: from tissue; host or cells: rat lumbar spinal cord slices (lamina II neurons) and synaptosomes made from them
Method: Spinal cord slice preparation and electrophysiological recordings: The lumbar spinal cord was rapidly removed through laminectomy from the animals anesthetized with isoflurane. […] The spinal cord tissue was then placed in a shallow groove formed in an agar block and glued onto the stage of a vibratome (Leica, Germany).
All signals were recorded using an amplifier (MultiClamp700B; Axon Instruments Inc., Union City, Calif.), filtered at 1-2 kHz, and digitized at 10 kHz.

[4] = target: T3, NMDARs of spinally projecting PVN neurons (Rattus norvegicus, UniProt P35439+Q00959+Q00960); assay: Recordings of spinally projecting PVN neurons in rat brain slices (Ang II); assay type: cell-based; conditions: losartan 2 μmol/L, pregabalin 20 μmol/L, peptides 1 μmol/L
T3 construct: from tissue; host or cells: rat hypothalamic slices containing the PVN (Sprague-Dawley, WKY, SHR) and synaptosomes made from them
Text: Retrograde labeling of spinally projecting PVN neurons: Rats or mice were anesthetized with 2-3% isoflurane, and their spinal cords at the T1-T4 level were exposed through dorsal laminectomy. A fluorescent microsphere suspension (FluoSpheres, 0.04 μm; Molecular Probes, Invitrogen, Eugene, Oreg.) was pressure ejected (Nanoject II Microinjectors, Drummond Scientific Company, Broomall, Pa.) bilaterally into the IML region of the spinal cord in six separate 50-nl injections using a glass micropipette (tip diameter, 20-30 μm). […] The wound was closed with sutures after injection. Animals were returned to their cages for 4-7 days, which was sufficient time to permit the tracer to be retrogradely transported to the PVN. The animals were inspected daily for motor activity, signs of infection, and food and water intake.
Brain slice preparation: Four to seven days after fluorescent tracer injection, the animals were anesthetized with isoflurane and rapidly decapitated. […] Coronal slices (thickness, 300 μm) containing the PVN were cut from the tissue block in the ice-cold aCSF. […] The brain slices were placed in a glass-bottom chamber and continuously perfused with aCSF at 3.0 ml/min at 34° C. maintained by an inline solution heater and temperature controller.
The labeled PVN neurons were briefly identified with the aid of epifluorescence illumination, and whole-cell recordings from labeled PVN neurons were performed under differential interference contrast optics on an upright microscope (BX50 WI; Olympus Optical, Tokyo, Japan). Recordings of postsynaptic currents began 5 min after the whole-cell access was established and the current reached a steady state.
Signals were processed with an […] amplifier (Axon Instruments, Foster City, Calif.). A liquid junction potential of 15 mV (for the potassium gluconate pipette solution) was corrected during off-line analysis.
Postsynaptic NMDAR currents were elicited by puff application of 100 μmol/L NMDA to the recorded neuron using a positive pressure system (4 p.s.i., 50 ms; Toohey Company, Fairfield, N.J.). The tip of the puff pipette was placed 150 μm from the recorded neuron. […] The NMDAR current data presented in the manuscript were the average of 3 consecutive currents elicited by repeated puff NMDA. The neuron was discarded if the current was not stable.
Ang II, losartan, and NMDA were obtained from Sigma (St. Louis, Mo.). The α2δ-1Tat peptide and scrambled control peptide were synthesized by Bio Basic Inc. (Markham, Ontario, Canada) and validated by liquid chromatography and mass spectrometry. […] All drugs were prepared immediately before the experiments and applied to the slice chamber. The brain slices were first pretreated with Ang II, losartan, α2δ-1Tat peptide, or control peptide in the slice incubation chamber before recording. For electrophysiological recording, the treatment agents were immediately removed and the brain slice transferred to a separate recording chamber.

[5] = target: T4, α2δ-1 and NMDAR subunits in spinal cord synaptosomes (Rattus norvegicus, UniProt P35439+Q00959+Q00960); assay: Protein levels in spinal cord synaptosomes of treated slices (SNL, sham); assay type: cell-based; conditions: slices treated 30 min
T4 construct: from tissue; host or cells: rat lumbar spinal cord slices (lamina II neurons) and synaptosomes made from them
Method: PSD-95, a known postsynaptic protein, was used as an internal control.
Spinal cord synaptosome preparation: The spinal cord slices were pooled from 2 rats and were homogenized using glass-Teflon homogenizer in 10 volumes of ice-cold HEPES-buffered sucrose (0.32 M sucrose, 1 mM EGTA, and 4 mM HEPES at pH 7.4) containing the protease inhibitor cocktail (Sigma-Aldrich). The homogenate was centrifuged at 1,000×g for 10 min at 4° C. to remove the nuclei and large debris. […] The synaptosomal pellet was lysed via hypo-osmotic shock in 9 volumes of ice-cold HEPES-buffer with the protease inhibitor cocktail for 30 min. The lysate was centrifuged at 25,000×g for 20 min at 4° C. to obtain the synaptosomal membrane fraction, which was then dissolved in sodium dodecyl sulfate sample buffer at a final concentration of 0.25 μg/μl for immunoblotting. […] The α2δ-1Tat peptide and scrambled control peptide were synthesized by Bio Basic Inc. (Marham, Ontario, Canada) and validated by using liquid chromatography and mass spectrometry.

[6] = test system: anesthetized rats; assay: PVN microinjection and recording of RSNA and ABP (Ang II); assay type: in vivo, rat; conditions: peptides 100 μmol/L, 50 nl
Method: PVN microinjection and recording of renal sympathetic nerve activity: Rats were anesthetized with a mixture of α-chloralose (60 mg/kg, i.p.) and urethane (800 mg/kg, i.p.). A retroperitoneal incision was made, and a branch of the left renal postganglionic sympathetic nerve was isolated under a surgical microscope. The renal sympathetic nerve was cut distally to ensure that afferent nerve activity was not recorded. The renal sympathetic nerve activity (RSNA), arterial blood pressure (ABP), and heart rate (HR) were recorded using a 1401-PLUS analog-to-digital converter and Spike2 system (Cambridge Electronic Design, Cambridge, UK). A microinjection pipette (tip diameter, 20-30 μm) was advanced into the PVN according to the following stereotactic coordinates: 1.6-2.0 mm caudal to the bregma, 0.5 mm lateral to the midline, and 7.0-7.5 mm ventral to the dura. The microinjection was done using a calibrated microinjection system (Nanoject II; Drummond Scientific) and monitored using a surgical microscope as described previously (Li and Pan, 2006, 2007; Qiao et al., 2017). Ang II (200 μmol/L, 50 nl) was microinjected into the PVN to observe the change in RSNA and ABP in the absence or presence of α2δ-1Tat peptide (100 μmol/L, 50 nl) or control peptide (100 μmol/L, 50 nl). The microinjections were separated by 10- to 15-min intervals to allow recovery of the response. To determine the location of the injection site and diffusion of the drugs in the PVN, 5% rhodamine-labeled fluorescent microspheres (0.04 μm; Molecular Probes) were included in the injection solution (Li and Pan, 2006, 2007; Qiao et al., 2017).

[7] = target: T5, NMDARs of hippocampal CA1 pyramidal neurons (Mus musculus, UniProt O08532+P35438); assay: Puff NMDAR currents of hippocampal CA1 neurons, oxygen-glucose deprivation (OGD); assay type: cell-based; conditions: 5 min OGD; gabapentin 30 or 100 μM, peptides 1 μM, 60 min
T5 construct: from tissue; host or cells: mouse brain slices (hippocampal CA1, hypothalamic PVN, brain tissue membrane extracts)
Method: Brain slice preparation and recording. The tissues containing the hippocampus were sliced sagittally (300 μm thick) using a vibratome. […] NMDAR currents of pyramidal neurons in the hippocampal CA1 region were recorded by puff application of 100 μM NMDA directly to the recorded neuron at a holding potential of −60 mV.

[8] = paclitaxel-treated rats, AP5 50 μM, pregabalin 20 μM, peptides 1 μM
[9] = vehicle-treated rats, AP5 50 μM, pregabalin 20 μM, peptides 1 μM

T1 sequence (Q00959 20-1464 limits assumed, other chains not shown): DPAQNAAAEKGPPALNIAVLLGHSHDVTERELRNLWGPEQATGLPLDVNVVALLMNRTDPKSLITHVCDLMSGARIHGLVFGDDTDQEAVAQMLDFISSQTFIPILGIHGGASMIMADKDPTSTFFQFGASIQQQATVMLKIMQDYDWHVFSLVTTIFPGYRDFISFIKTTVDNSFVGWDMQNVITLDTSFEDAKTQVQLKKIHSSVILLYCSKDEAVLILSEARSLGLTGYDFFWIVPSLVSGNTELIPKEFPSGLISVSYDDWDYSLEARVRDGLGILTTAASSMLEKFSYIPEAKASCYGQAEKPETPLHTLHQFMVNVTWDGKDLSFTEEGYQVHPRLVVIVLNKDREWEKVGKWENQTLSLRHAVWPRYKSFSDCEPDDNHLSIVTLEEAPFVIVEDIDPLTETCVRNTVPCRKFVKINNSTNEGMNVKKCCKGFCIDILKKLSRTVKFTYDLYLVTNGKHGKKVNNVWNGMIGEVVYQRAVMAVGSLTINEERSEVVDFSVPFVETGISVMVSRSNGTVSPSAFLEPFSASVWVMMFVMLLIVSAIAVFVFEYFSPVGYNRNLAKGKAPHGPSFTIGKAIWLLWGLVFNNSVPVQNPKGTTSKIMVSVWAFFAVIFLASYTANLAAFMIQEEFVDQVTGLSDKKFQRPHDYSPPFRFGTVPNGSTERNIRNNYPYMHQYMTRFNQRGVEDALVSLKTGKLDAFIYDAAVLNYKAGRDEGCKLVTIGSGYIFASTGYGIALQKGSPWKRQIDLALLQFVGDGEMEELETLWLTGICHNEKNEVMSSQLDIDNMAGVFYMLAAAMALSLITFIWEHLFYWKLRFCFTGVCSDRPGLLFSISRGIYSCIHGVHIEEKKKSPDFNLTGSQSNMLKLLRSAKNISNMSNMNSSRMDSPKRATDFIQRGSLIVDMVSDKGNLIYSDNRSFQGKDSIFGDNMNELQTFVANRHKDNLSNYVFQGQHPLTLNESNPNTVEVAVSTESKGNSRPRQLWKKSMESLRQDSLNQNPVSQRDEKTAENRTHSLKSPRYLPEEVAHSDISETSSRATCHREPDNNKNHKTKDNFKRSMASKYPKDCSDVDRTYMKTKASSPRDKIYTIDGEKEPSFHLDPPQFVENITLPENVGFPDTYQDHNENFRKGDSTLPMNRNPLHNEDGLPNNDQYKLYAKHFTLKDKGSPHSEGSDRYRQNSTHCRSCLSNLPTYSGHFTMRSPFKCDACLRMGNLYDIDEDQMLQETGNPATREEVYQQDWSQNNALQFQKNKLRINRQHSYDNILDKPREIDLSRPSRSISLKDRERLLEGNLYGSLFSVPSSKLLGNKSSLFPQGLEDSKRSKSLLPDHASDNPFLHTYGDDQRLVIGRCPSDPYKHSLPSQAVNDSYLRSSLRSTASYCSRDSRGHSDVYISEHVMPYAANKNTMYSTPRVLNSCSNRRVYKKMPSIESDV
T1 sequence (Q00960 27-1482, other chains not shown): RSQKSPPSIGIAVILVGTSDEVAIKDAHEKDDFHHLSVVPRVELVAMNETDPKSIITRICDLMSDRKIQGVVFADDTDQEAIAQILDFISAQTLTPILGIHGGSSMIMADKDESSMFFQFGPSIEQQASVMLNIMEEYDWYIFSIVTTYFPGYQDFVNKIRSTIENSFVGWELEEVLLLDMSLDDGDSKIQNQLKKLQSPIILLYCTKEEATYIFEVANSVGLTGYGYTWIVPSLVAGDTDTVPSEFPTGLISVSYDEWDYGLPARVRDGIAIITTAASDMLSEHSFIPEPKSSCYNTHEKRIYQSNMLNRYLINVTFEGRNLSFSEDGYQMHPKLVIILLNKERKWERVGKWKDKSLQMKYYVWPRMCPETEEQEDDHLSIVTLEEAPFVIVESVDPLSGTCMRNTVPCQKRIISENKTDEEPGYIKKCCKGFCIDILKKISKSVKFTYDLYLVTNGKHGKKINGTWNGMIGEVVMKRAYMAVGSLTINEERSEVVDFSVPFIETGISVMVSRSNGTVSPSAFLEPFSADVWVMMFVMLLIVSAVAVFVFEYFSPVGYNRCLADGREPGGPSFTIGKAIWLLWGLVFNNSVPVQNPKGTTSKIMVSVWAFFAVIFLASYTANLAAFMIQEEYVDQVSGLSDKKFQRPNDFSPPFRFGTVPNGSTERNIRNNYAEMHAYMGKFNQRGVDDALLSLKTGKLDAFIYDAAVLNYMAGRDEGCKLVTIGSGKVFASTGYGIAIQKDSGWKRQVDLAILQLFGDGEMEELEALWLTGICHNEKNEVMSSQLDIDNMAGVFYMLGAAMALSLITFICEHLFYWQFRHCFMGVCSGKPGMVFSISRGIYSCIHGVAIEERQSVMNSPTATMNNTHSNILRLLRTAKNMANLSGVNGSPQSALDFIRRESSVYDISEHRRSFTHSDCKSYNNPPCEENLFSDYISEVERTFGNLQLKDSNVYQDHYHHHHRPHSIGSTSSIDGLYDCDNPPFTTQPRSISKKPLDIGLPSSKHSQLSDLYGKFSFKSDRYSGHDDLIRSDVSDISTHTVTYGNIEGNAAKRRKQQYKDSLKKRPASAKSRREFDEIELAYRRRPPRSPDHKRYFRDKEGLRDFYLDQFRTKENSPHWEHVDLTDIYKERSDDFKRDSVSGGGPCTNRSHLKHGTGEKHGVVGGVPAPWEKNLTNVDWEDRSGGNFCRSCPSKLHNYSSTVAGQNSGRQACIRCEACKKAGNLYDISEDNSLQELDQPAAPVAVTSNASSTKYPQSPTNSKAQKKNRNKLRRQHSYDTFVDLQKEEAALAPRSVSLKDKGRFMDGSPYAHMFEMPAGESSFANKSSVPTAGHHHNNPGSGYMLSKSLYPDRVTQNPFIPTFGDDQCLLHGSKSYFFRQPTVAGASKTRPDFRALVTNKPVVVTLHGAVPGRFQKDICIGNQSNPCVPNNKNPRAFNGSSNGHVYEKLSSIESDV
T5 sequence (O08532 25-956 limits assumed, other chains not shown): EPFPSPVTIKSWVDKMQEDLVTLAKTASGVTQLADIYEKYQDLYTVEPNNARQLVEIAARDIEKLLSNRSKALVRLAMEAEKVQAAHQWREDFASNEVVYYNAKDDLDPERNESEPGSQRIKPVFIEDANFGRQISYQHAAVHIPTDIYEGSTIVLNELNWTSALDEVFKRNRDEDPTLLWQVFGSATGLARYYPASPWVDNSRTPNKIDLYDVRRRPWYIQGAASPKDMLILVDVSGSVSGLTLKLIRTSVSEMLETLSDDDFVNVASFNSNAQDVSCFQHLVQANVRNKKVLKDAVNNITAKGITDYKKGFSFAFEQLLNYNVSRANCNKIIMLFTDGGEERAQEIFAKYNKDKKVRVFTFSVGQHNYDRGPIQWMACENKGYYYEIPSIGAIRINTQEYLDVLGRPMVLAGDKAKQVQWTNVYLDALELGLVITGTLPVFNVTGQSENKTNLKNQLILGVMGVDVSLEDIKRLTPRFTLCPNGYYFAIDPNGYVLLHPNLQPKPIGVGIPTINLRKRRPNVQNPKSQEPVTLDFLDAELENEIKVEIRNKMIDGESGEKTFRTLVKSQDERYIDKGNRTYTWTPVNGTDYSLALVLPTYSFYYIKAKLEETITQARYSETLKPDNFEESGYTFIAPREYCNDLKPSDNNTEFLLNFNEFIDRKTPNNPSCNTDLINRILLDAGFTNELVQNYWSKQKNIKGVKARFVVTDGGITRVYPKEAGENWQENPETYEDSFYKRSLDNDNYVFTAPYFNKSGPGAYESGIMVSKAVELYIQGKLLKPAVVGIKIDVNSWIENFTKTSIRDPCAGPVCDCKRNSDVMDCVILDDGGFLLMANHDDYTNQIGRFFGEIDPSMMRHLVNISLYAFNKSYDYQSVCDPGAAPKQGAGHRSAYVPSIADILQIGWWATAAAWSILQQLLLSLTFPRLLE

FGLGWQPWSLSFYLVWSGLILSVLHLIRSN (Control peptide) [Tat-fused scrambled peptide]
had no effect: puff NMDA currents of labelled PVN neurons ([1]; SHRs) | baseline frequency of mEPSCs of labelled PVN neurons ([1]; SHRs, AP5 50 μmol L-1, gabapentin 100 μmol L-1, peptides 1 μmol L-1, 60 min) | amplitude of puff NMDA currents ([1]; WKY rats) | frequency or amplitude of mEPSCs of labelled PVN neurons ([1]; WKY rats) | PPR of evoked EPSCs ([2]; vehicle-treated rats)
had no such effects: increased protein levels of GluN1, GluN2A, GluN2B and α2δ-1 in spinal cord synaptosomes ([5]; SNL rats) | protein levels of GluN1, GluN2A, GluN2B and α2δ-1 in spinal cord synaptosomes ([5]; sham rats)
significantly increased: effect of Ang II on puff NMDA currents in pretreated slices ([4]; 30 min)
did not significantly alter: increased amplitude of evoked monosynaptic EPSCs [2, 8] | amplitude of evoked monosynaptic EPSCs [2, 9]
did not affect: ratio of NMDAR-EPSCs to AMPAR-EPSCs ([1]; SHRs) | amplitude of evoked NMDAR-EPSCs of labelled PVN neurons ([1]; SHRs, gabapentin 100 μmol L-1, peptides 1 μmol L-1, 60 min) | ratio of NMDAR-EPSCs to AMPAR-EPSCs ([1]; WKY rats) | amplitude of evoked AMPAR-EPSCs of labelled PVN neurons ([1]; WKY rats or SHRs) | amplitude of evoked NMDAR-EPSCs of labelled PVN neurons ([1]; WKY rats, gabapentin 100 μmol L-1, peptides 1 μmol L-1, 60 min) | increased frequency of mEPSCs of lamina II neurons [2, 8] | frequency of mEPSCs of lamina II neurons [2, 9] | amplitude of monosynaptic evoked EPSCs [3] | effect of Ang II on mEPSC frequency in pretreated slices [4]
did not alter: OGD-induced increase in the puff NMDAR currents [7]
not altered: ABP and RSNA responses to Ang II after prior peptide microinjection into the PVN [6]
